Results taken from patent US20160002331A1.

Tests used:
Assay in all cases: cell-based or functional assay
[1] = target: Notch1 receptor with L1594P mutation (ALL-SIL cells), P46531
[2] = target: Notch1 receptor with L1594P/D1610V mutations (DND-41 cells), P46531
[3] = target: Notch1 receptor with a 17 amino acid insertion at position 1740 (Jurkat cells), P46531
[4] = target: Notch1 receptor with L1601P mutation (MOLT-4 cells), P46531
Sequence of Notch1 receptor with L1601P mutation (MOLT-4 cells), P46531 (P46531 19-2555, stated change not applied): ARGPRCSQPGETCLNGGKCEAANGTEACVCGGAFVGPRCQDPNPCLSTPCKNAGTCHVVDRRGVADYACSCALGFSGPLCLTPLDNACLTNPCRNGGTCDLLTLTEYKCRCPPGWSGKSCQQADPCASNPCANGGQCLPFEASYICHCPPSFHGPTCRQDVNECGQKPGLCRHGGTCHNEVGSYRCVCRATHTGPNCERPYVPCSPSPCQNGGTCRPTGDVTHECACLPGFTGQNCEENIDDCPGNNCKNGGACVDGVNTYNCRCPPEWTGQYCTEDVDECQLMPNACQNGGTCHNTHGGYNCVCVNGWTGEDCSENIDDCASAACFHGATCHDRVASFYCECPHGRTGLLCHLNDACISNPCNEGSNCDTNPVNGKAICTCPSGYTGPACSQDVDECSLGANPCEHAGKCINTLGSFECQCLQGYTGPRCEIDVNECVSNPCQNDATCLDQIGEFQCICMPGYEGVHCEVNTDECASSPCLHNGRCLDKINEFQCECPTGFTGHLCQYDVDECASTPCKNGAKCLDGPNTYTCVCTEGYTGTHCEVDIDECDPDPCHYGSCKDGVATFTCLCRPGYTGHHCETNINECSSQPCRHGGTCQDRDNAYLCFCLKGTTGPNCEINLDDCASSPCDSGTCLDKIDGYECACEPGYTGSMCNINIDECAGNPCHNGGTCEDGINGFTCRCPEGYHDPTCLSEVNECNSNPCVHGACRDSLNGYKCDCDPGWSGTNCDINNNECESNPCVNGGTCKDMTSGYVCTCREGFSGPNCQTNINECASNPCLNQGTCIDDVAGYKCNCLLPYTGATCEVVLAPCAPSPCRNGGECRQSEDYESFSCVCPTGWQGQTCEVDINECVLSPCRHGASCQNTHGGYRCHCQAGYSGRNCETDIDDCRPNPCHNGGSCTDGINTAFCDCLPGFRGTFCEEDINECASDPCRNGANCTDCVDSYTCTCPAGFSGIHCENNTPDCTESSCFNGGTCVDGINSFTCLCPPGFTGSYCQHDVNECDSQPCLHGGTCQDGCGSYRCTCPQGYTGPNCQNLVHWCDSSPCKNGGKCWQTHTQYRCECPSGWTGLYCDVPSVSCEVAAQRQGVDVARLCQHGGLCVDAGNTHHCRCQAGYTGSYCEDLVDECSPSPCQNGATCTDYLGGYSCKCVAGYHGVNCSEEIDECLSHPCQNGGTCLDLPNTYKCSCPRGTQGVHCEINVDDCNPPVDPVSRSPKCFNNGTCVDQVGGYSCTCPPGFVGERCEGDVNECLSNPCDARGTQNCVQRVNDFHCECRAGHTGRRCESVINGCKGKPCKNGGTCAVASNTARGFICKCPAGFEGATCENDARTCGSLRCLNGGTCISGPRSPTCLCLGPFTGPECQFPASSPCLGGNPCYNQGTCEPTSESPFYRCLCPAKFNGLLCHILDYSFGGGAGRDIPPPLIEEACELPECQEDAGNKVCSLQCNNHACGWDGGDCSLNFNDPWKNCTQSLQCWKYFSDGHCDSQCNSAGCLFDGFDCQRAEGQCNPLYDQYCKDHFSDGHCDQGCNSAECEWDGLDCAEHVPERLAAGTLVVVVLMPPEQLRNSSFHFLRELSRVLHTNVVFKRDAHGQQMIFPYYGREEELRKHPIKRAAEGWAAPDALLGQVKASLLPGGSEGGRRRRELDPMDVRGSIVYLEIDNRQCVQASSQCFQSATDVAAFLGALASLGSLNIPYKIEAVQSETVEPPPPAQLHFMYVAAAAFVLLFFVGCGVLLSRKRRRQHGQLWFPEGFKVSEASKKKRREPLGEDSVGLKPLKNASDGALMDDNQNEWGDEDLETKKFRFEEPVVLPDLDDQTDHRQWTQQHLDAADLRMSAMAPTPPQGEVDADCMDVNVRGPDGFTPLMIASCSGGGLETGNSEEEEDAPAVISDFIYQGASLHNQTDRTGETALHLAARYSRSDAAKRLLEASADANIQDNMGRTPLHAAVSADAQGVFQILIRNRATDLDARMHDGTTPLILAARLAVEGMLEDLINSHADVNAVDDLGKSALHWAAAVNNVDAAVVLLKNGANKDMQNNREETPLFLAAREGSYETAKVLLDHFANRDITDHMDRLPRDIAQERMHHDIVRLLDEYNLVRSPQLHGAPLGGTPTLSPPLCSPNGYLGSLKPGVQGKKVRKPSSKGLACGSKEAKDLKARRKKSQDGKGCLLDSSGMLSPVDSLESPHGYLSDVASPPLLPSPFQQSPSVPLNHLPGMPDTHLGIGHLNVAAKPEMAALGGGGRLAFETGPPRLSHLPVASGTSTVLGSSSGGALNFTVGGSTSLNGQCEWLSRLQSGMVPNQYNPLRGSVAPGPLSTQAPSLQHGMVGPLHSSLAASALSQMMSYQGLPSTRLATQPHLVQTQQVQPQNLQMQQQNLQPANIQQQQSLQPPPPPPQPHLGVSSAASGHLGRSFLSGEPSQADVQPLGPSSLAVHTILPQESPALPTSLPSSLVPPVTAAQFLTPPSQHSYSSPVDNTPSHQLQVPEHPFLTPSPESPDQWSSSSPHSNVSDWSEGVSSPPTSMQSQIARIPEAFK

Sequence of Notch1 receptor with L1594P/D1610V mutations (DND-41 cells), P46531 (P46531 19-2555, stated change not applied): as above
Sequence of Notch1 receptor with L1594P mutation (ALL-SIL cells), P46531 (P46531 19-2555, stated change not applied): as above
Sequence of Notch1 receptor with a 17 amino acid insertion at position 1740 (Jurkat cells), P46531 (P46531 19-2555): as the sequence (P46531 19-2555, stated change not applied) above

Normalized Notch1^ICD level, ALL-SIL cells, 0.001 µg/ml antibody (relative to untreated) [1]: 0.982 | Normalized Notch1^ICD level, ALL-SIL cells, 0.01 µg/ml antibody (relative to untreated) [1]: 0.712 | Normalized Notch1^ICD level, ALL-SIL cells, 0.1 µg/ml antibody (relative to untreated) [1]: 0.08 | Normalized Notch1^ICD level, ALL-SIL cells, 1 µg/ml antibody (relative to untreated) [1]: 0.03 | Normalized Notch1^ICD level, ALL-SIL cells, 10 µg/ml antibody (relative to untreated) [1]: 0.019 | Normalized Notch1^ICD level, DND-41 cells, 0.001 µg/ml antibody (relative to untreated) [2]: 1.02 | Normalized Notch1^ICD level, DND-41 cells, 0.01 µg/ml antibody (relative to untreated) [2]: 0.988 | Normalized Notch1^ICD level, DND-41 cells, 0.1 µg/ml antibody (relative to untreated) [2]: 0.367 | Normalized Notch1^ICD level, DND-41 cells, 1 µg/ml antibody (relative to untreated) [2]: 0.322 | Normalized Notch1^ICD level, DND-41 cells, 10 µg/ml antibody (relative to untreated) [2]: 0.219 | Normalized Notch1^ICD level, Jurkat cells, 0.001 µg/ml antibody (relative to untreated) [3]: 1.53 | Normalized Notch1^ICD level, Jurkat cells, 0.01 µg/ml antibody (relative to untreated) [3]: 1.44 | Normalized Notch1^ICD level, Jurkat cells, 0.1 µg/ml antibody (relative to untreated) [3]: 1.41 | Normalized Notch1^ICD level, Jurkat cells, 1 µg/ml antibody (relative to untreated) [3]: 1.08 | Normalized Notch1^ICD level, Jurkat cells, 10 µg/ml antibody (relative to untreated) [3]: 1.2 | Normalized Notch1^ICD level, MOLT-4 cells, 0.01 µg/ml antibody (relative to untreated) [4]: 1.52 | Normalized Notch1^ICD level, MOLT-4 cells, 0.1 µg/ml antibody (relative to untreated) [4]: 0.751 | Normalized Notch1^ICD level, MOLT-4 cells, 1 µg/ml antibody (relative to untreated) [4]: 0.284 | Normalized Notch1^ICD level, MOLT-4 cells, 10 µg/ml antibody (relative to untreated) [4]: 0.082
B1: rat 351-mIgG1 (antibody, V domains shown)
VH: EVQLVESGGGLVQPGRSLKVSCLASGFTFSHYGMNWIRQAPGKGLDWVASISRSGSYIRYVDTVKGRFTVSRDIAKNTLYLQMTSLRSEDTALYYCAREGQFGDYFEYWGQGVMVTVSS
VL: DIMLTQSPATLSVTPGERISLSCRASQKISTNLHWYQQKPNESPRILIKYASQTISGIPSRFSGSGSGTDFTLHINTVEPEDFSVYYCQQTNSWPLTFGSGTKLEIK
